Reference: the supplement of paper PMC10065799, “High-throughput profiling of sequence recognition by tyrosine kinases and SH2 domains using bacterial peptide display” (eLife, 2023)

Key:
SHP2-C SH2 = experiment: SH2 binding enrichment of the phosphorylated peptide, bacterial display (enrichment ratio); higher = better substrate or ligand; peptides without Tyr show the background
Grb2 SH2 = Grb2 SH2 (UniProt P62993); experiment: as above
c-Src SH2 = experiment: as above
AncSZ = experiment: phosphorylation enrichment, bacterial display (enrichment ratio); higher = better substrate or ligand; peptides without Tyr show the background
c-Src = experiment: as above
Hck = Hck (UniProt P08631); experiment: as above
FGFR3 = FGFR3 (UniProt P22607); experiment: as above
EPHB1 = EPHB1 (UniProt P54762); experiment: as above
c-Abl (mouse) = experiment: as above
EPHB2 = EPHB2 (UniProt P29323); experiment: as above
Fer (mouse) = experiment: as above
MERTK = MERTK (UniProt Q12866); experiment: as above
Jak2 = Jak2 (UniProt O60674); experiment: as above
Fyn = Fyn (UniProt P06241); experiment: as above
Fes = Fes (UniProt P07332); experiment: as above
FGFR1 = FGFR1 (UniProt P11362); experiment: as above
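Throughout, for SH2 binding enrichment of the phosphorylated peptide, bacterial display: peptide library displayed on the E. coli surface as eCPX fusions, selected cells deep-sequenced, score is each peptide's frequency after selection divided by its frequency in the input.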
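Throughout, for phosphorylation enrichment, bacterial display: 11-residue human phosphosite peptides and single-mutation variants displayed on the E. coli surface, counted by deep sequencing, each peptide's frequency after selection divided by its frequency in the unselected input library; frequency after pTyr selection over input frequency; kinase dosed for 20-30% of maximal phosphorylation in three min.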

Fes, sequence (P07332 whole entry, looked up): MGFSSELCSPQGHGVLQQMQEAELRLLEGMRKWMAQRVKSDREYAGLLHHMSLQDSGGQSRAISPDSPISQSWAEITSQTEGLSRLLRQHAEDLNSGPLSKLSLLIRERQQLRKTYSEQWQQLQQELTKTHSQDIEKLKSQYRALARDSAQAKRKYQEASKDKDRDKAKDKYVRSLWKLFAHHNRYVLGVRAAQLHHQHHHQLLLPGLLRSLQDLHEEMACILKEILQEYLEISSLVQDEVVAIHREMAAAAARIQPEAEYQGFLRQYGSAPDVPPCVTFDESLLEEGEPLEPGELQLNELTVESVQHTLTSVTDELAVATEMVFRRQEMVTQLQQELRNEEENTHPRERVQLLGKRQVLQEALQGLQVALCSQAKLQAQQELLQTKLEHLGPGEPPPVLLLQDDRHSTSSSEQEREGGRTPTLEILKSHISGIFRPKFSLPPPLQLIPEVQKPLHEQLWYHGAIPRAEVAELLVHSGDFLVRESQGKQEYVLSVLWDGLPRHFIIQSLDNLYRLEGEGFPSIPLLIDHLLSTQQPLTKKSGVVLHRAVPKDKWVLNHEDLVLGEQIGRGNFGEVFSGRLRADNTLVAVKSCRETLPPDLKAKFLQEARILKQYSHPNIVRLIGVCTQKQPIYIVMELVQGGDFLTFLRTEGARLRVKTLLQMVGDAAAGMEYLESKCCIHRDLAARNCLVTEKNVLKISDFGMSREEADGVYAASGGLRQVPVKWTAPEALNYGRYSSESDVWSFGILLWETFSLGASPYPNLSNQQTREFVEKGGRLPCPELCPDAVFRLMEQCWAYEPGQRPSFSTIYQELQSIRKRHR
EPHB1, sequence (P54762 whole entry, looked up): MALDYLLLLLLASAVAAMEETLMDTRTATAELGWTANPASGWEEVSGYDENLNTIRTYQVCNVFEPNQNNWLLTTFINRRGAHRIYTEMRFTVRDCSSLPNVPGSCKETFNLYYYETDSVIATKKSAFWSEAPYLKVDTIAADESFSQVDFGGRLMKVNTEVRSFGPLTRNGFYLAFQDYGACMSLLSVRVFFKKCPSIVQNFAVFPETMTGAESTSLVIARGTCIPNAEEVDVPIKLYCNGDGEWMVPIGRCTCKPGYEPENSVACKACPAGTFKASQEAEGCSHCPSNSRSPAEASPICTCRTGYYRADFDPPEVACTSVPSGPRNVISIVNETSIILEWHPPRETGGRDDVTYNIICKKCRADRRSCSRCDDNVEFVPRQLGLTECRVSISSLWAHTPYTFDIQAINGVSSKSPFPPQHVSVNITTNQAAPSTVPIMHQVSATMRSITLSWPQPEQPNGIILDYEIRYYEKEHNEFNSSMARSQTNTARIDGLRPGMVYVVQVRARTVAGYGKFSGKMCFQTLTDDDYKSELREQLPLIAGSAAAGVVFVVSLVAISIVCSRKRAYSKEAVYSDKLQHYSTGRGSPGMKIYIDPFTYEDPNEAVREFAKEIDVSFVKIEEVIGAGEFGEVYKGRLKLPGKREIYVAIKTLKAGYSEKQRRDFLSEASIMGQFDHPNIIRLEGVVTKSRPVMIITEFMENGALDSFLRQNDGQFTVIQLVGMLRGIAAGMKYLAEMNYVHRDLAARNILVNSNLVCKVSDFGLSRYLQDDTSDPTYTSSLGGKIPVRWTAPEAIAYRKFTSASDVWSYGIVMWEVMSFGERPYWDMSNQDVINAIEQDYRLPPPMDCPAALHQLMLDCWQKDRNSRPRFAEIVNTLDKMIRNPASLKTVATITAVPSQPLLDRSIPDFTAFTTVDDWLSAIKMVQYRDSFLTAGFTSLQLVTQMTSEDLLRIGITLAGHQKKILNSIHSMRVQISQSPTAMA
Hck, sequence (P08631 whole entry, looked up): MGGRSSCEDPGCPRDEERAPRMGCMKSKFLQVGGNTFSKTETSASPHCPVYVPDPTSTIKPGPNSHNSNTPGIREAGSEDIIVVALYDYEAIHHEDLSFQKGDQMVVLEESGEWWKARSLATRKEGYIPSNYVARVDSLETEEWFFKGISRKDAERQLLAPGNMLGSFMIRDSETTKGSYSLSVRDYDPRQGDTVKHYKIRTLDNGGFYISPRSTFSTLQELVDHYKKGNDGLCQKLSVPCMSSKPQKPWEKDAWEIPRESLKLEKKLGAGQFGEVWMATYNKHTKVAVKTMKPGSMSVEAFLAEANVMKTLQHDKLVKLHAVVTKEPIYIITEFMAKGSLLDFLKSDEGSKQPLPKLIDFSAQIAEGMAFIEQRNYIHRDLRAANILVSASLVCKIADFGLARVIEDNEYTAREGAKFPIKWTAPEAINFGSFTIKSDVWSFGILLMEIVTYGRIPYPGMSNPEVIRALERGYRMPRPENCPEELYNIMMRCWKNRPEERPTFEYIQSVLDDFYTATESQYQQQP
Jak2, sequence (O60674 whole entry, looked up): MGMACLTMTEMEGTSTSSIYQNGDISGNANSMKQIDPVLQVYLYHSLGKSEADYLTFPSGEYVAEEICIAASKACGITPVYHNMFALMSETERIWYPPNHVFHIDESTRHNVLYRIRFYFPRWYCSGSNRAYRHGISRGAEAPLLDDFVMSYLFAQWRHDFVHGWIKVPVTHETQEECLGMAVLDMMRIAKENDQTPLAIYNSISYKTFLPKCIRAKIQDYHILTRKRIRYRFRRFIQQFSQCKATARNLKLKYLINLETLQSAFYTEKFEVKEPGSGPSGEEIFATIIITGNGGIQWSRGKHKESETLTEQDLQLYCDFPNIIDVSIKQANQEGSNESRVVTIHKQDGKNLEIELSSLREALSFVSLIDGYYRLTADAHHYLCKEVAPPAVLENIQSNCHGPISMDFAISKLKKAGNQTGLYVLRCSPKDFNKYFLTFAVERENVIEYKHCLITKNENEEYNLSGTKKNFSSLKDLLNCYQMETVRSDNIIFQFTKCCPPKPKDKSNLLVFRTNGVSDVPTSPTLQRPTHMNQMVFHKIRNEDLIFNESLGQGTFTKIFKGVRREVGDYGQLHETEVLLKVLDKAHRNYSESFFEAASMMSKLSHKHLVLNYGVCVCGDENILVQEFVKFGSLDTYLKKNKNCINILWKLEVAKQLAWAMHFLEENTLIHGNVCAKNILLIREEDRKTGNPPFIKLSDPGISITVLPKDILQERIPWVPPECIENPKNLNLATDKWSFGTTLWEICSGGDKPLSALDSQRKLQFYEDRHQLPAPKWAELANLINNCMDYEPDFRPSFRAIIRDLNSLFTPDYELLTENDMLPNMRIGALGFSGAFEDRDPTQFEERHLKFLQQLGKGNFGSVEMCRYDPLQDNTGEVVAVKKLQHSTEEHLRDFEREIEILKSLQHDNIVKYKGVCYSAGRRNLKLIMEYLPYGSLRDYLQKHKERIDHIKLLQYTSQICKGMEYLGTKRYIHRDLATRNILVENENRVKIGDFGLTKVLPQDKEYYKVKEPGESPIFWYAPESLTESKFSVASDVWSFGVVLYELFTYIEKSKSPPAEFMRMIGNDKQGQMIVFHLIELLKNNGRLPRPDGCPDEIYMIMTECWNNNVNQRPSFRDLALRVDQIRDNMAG
FGFR3, sequence (P22607 whole entry, looked up): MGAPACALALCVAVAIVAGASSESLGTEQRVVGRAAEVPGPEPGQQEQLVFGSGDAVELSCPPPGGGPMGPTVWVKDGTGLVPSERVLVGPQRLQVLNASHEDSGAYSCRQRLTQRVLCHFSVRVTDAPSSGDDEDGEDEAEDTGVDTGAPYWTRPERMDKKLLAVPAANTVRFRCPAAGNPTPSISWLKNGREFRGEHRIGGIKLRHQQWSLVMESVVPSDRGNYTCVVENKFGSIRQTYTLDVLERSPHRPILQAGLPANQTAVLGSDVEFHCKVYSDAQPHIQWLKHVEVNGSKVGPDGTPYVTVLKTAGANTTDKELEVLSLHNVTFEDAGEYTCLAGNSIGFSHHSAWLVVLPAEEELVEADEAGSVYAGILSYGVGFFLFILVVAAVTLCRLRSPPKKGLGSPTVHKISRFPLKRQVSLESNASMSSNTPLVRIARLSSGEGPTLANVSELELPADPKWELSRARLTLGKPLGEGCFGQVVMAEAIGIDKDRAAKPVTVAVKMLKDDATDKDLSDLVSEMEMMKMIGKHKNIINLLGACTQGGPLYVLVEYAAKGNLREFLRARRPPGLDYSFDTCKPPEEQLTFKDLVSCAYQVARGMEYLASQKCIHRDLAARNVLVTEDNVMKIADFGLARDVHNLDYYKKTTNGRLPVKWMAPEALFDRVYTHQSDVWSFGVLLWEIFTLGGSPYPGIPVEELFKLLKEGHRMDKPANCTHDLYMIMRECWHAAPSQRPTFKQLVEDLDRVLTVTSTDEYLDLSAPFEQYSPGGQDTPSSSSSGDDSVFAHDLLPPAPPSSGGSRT
FGFR1, sequence (P11362 whole entry, looked up, the tested form may be a part): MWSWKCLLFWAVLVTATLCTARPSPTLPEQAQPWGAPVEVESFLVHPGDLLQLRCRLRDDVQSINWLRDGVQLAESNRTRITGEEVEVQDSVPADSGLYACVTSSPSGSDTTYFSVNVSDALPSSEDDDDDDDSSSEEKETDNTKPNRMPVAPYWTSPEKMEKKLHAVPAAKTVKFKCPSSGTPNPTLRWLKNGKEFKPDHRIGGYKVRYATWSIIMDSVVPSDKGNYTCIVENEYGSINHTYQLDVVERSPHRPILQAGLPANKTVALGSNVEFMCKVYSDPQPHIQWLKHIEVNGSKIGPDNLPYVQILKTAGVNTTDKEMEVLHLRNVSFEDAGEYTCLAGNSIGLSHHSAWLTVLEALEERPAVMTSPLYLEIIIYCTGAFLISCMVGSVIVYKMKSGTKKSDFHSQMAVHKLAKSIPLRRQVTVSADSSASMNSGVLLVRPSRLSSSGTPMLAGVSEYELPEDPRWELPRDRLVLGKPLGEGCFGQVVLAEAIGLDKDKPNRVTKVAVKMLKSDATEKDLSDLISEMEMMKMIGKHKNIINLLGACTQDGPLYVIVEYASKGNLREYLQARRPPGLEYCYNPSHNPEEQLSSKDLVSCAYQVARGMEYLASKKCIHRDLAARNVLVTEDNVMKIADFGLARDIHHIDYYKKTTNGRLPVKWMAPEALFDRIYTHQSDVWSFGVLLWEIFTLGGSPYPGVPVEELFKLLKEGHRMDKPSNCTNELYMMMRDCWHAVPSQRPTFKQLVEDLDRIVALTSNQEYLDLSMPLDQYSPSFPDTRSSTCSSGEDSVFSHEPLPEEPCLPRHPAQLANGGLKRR

SH2 binding enrichment (SHP2-C SH2) | SH2 binding enrichment (Grb2 SH2) | SH2 binding enrichment (c-Src SH2) | Sequence | phosphorylation enrichment (AncSZ) | phosphorylation enrichment (c-Src) | phosphorylation enrichment (Hck) | phosphorylation enrichment (FGFR3) | phosphorylation enrichment (EPHB1) | phosphorylation enrichment (c-Abl (mouse)) | phosphorylation enrichment (EPHB2) | phosphorylation enrichment (Fer (mouse)) | phosphorylation enrichment (MERTK) | phosphorylation enrichment (Jak2) | phosphorylation enrichment (Fyn) | phosphorylation enrichment (Fes) | phosphorylation enrichment (FGFR1)
0.778 | 0.909 | 0.45 | VGGRIYIDDGL [PKLR_Y218] | 0.742 | 0.493 | 0.463 | 0.539 | 0.493 | 0.727 | 0.431 | 0.681 | 0.383 | 0.91 | 0.459 | 0.885 | 0.575
0.421 | 0.759 | 1.17 | RSYSPCDYQPC [TNS1_Y796_Y796C] | 1.12 | 1.56 | 0.777 | 1.28 | 17.1 | 0.457 | 8.45 | 0.544 | 0.726 | 0.533 | 0.554 | 0.935 | 2.76
0.71 | 0.802 | 4.38 | YLELNYKEDEY [MME_Y502] | 1.78 | 0.88 | 1.21 | 3.65 | 0.786 | 0.929 | 0.478 | 0.55 | 0.923 | 1.3 | 0.63 | 1.43 | 4.36
0.653 | 0.811 | 0.564 | KVVQEYERVII [NPHS2_Y131] | 1.09 | 0.457 | 0.563 | 0.719 | 3.17 | 0.757 | 2.79 | 3.84 | 0.435 | 0.801 | 0.485 | 0.956 | 0.633
0.587 | 0.586 | 0.326 | HFNLTYRILSF [MMP23B_Y95] | 1.6 | 0.636 | 0.644 | 1.19 | 0.826 | 1.47 | 0.615 | 0.726 | 0.481 | 1.8 | 0.391 | 1.8 | 0.486
0.514 | 0.749 | 0.528 | ANSSFHSTRSA [NUMA1_Y1836_Y1836H] | 0.597 | 0.602 | 0.551 | 0.599 | 0.436 | 0.616 | 0.51 | 0.425 | 0.496 | 0.552 | 0.555 | 1.04 | 0.551
0.506 | 0.697 | 0.402 | VEDHDYEGGIG [TKT_Y564_Y563D] | 1.49 | 0.624 | 0.609 | 0.874 | 0.737 | 1.01 | 0.785 | 0.602 | 0.517 | 1.24 | 0.518 | 1.45 | 0.571
0.715 | 0.891 | 0.497 | KSSDVYVSFDF [SORL1_Y136_YF] | 1.21 | 4.3 | 3.02 | 2.81 | 1.73 | 0.935 | 1.11 | 4.79 | 3.34 | 0.983 | 5.77 | 1.22 | 3.78
1.07 | 1.12 | 0.611 | KILGRYFETSS [PAX2_Y72_G76S_YF] | 0.648 | 0.341 | 0.508 | 0.633 | 0.424 | 0.529 | 0.406 | 0.432 | 0.358 | 0.706 | 0.374 | 0.694 | 0.469
1.99 | 1.85 | 1.61 | GRIHSYRGHLW [VHL_Y112_R107G] | 0.585 | 0.347 | 0.359 | 0.438 | 0.387 | 0.51 | 0.392 | 0.373 | 0.357 | 0.535 | 0.38 | 0.712 | 0.363
0.578 | 0.874 | 0.44 | DTMQTYNGNDE [TSPAN7_Y131_A127T] | 0.976 | 0.502 | 0.642 | 0.817 | 0.589 | 0.758 | 0.632 | 0.557 | 0.382 | 0.976 | 0.491 | 1.17 | 0.695
0.71 | 0.964 | 0.5 | WISNRYPDFSS [PRPH2_Y184_L185P] | 0.798 | 0.52 | 0.497 | 0.685 | 0.434 | 0.66 | 0.552 | 0.484 | 0.487 | 0.841 | 0.404 | 0.953 | 0.533
0.687 | 0.787 | 0.444 | GFRVCYTPDSR [PTPRF_Y451_Y450C_YF] | 1.26 | 0.451 | 0.507 | 0.691 | 0.513 | 0.777 | 0.512 | 0.548 | 0.419 | 1.01 | 0.397 | 1.34 | 0.472
0.666 | 0.807 | 0.467 | PNRILYGDFWQ [MYH6_Y717_R721W] | 1.1 | 4.24 | 2.16 | 0.935 | 0.689 | 0.778 | 0.939 | 0.626 | 0.849 | 0.999 | 5.79 | 1.29 | 0.555

Second part, the sequence before the results:

Sequence | SH2 binding enrichment (SHP2-C SH2) | SH2 binding enrichment (Grb2 SH2) | SH2 binding enrichment (c-Src SH2) | phosphorylation enrichment (AncSZ) | phosphorylation enrichment (c-Src) | phosphorylation enrichment (Hck) | phosphorylation enrichment (FGFR3) | phosphorylation enrichment (EPHB1) | phosphorylation enrichment (c-Abl (mouse)) | phosphorylation enrichment (EPHB2) | phosphorylation enrichment (Fer (mouse)) | phosphorylation enrichment (MERTK) | phosphorylation enrichment (Jak2) | phosphorylation enrichment (Fyn) | phosphorylation enrichment (Fes) | phosphorylation enrichment (FGFR1)
RLPNGYGLAFR [DLK1_Y262_S260N_YF] | 0.932 | 0.988 | 0.699 | 1.5 | 0.616 | 0.62 | 0.858 | 0.737 | 0.694 | 0.707 | 0.737 | 0.51 | 0.587 | 0.649 | 1.06 | 0.684
IFETDYFRKGG [INSR_Y1189_YF] | 0.672 | 0.918 | 0.472 | 0.988 | 0.539 | 0.529 | 0.686 | 0.568 | 0.741 | 0.626 | 0.581 | 0.436 | 0.934 | 0.5 | 0.938 | 0.536
LTFDEYRNISQ [ANXA3_Y216] | 0.585 | 2.68 | 0.49 | 1.82 | 0.643 | 1.08 | 1.49 | 1.01 | 1.13 | 0.782 | 1.08 | 0.498 | 1.58 | 0.854 | 1.93 | 1.23
LERYIYNRQEF [HLA-DPB1_Y59_E62Q] | 0.703 | 0.812 | 0.477 | 1.05 | 1.24 | 1.32 | 0.605 | 0.475 | 0.415 | 0.856 | 0.772 | 0.413 | 0.449 | 0.819 | 1.01 | 0.624
HDRREYSRFEK [ITGB7_Y758_Y753H] | 0.873 | 0.965 | 0.722 | 0.743 | 0.53 | 0.524 | 0.718 | 0.754 | 0.887 | 0.373 | 0.731 | 0.445 | 0.647 | 0.317 | 0.973 | 0.585
CSDPSYVKQME [CDC5L_Y464_Y459C] | 0.666 | 0.882 | 0.515 | 1.22 | 0.488 | 0.492 | 0.931 | 0.703 | 0.849 | 0.626 | 0.661 | 0.493 | 1.13 | 0.467 | 1.38 | 0.488
RKLVDYNSARH [BIN1_Y150_D151N] | 0.814 | 0.972 | 0.686 | 0.559 | 0.378 | 0.383 | 0.326 | 0.311 | 0.548 | 0.338 | 0.419 | 0.393 | 0.425 | 0.389 | 0.568 | 0.376
VPANRYDLLRL [FARSB_Y72_C76R] | 0.648 | 0.765 | 3.31 | 0.519 | 0.393 | 0.429 | 0.58 | 0.424 | 0.498 | 0.403 | 0.452 | 0.451 | 0.54 | 0.39 | 0.65 | 0.414
AEVDTYCRHNF [HLA-DRB1_Y107_A103E_YF] | 0.696 | 0.826 | 0.454 | 0.988 | 0.509 | 0.6 | 0.61 | 0.594 | 0.618 | 0.556 | 0.813 | 0.473 | 0.719 | 0.567 | 0.935 | 0.532
TIQIMYGCDVG [HLA-A_Y123] | 0.75 | 0.857 | 0.654 | 1.37 | 0.633 | 0.581 | 0.817 | 0.647 | 1.18 | 0.664 | 0.597 | 0.439 | 1.64 | 0.438 | 1.43 | 0.476
FASTGYGIAIQ [GRIN2B_Y762] | 0.647 | 0.721 | 0.452 | 0.655 | 0.408 | 0.484 | 0.55 | 0.575 | 0.739 | 0.456 | 0.375 | 0.408 | 0.605 | 0.499 | 0.92 | 0.557
TISPYYCQSLF [CRYAA_Y48_R49C] | 0.743 | 0.867 | 2.21 | 1.1 | 1.76 | 0.79 | 4.43 | 0.934 | 1.13 | 0.543 | 0.939 | 5.18 | 1.26 | 1.12 | 1.13 | 5.32
GSRGKCSSGFR [ATM_Y332_Y332C] | 0.713 | 1.06 | 0.915 | 0.471 | 0.387 | 0.464 | 0.423 | 0.41 | 0.709 | 0.379 | 0.433 | 0.411 | 0.532 | 0.395 | 0.558 | 0.403
IKNFKYGIEEH [GJA1_Y137_K134N] | 0.456 | 0.865 | 0.416 | 0.621 | 0.368 | 0.414 | 0.549 | 0.351 | 0.38 | 0.508 | 0.311 | 0.383 | 0.682 | 0.335 | 0.715 | 0.388
DQGEQYKKELE [LMNA_Y259_V256G] | 0.716 | 0.844 | 0.517 | 1.39 | 0.522 | 0.535 | 0.682 | 0.801 | 1.15 | 0.676 | 0.642 | 0.467 | 1.31 | 0.488 | 1.39 | 0.464
CPYNLYAEQFS [HGD_Y40_L44F] | 0.645 | 0.855 | 0.706 | 1.46 | 6.06 | 3 | 0.973 | 4.18 | 0.72 | 3.18 | 2.09 | 3.9 | 0.989 | 3.86 | 1.16 | 0.877
FDGKDYIALKE [HLA-A_Y147_N151K_YF] | 0.677 | 0.919 | 0.499 | 0.952 | 0.489 | 0.363 | 0.44 | 0.407 | 0.536 | 0.43 | 0.379 | 0.406 | 0.659 | 0.376 | 0.672 | 0.398
EQLRAYLEGTC [HLA-C_Y183] | 0.707 | 0.844 | 0.561 | 1.02 | 0.423 | 0.55 | 0.692 | 0.467 | 0.53 | 0.591 | 0.558 | 0.403 | 0.866 | 0.453 | 1.08 | 0.843
NPSFNYEIVNQ [DYNC1H1_Y3379_R3384Q_YF] | 0.579 | 0.78 | 0.724 | 1.43 | 0.408 | 0.602 | 0.847 | 3.9 | 0.586 | 1.44 | 1.12 | 0.492 | 1.13 | 0.524 | 1.47 | 0.763
